According to patent publication US20240002497A1 (Merck Sharp & Dohme, published 2024):
One block for each binder: values may come before it.

Assays:
[1] = target: T1, huNav1.7α + β1 (human); test: competition FACS vs EC25 of F103275B05(N93R), HEK
T1 construct: HEK293 cells; also called huNav1.7-beta1; huNav1.7-β1

[2] = target: T2, huNav1.7α (human, UniProt Q15858 1-1988); test: competition FACS vs EC25 of F103275B05(N93R), HEK
T2 construct: HEK cells expressing the α subunit without β subunits; also called huNav1.7 (alpha-subunit); Human Nav1.7α

[3] = target: T3, huNav1.7α + β1-β2-β3 (human, UniProt Q15858 1-1988; A5A6L6 19-218; O60939 30-215; Q2KI11 23-215); test: competition FACS vs EC25 of F103275B05(N93R), HEK FlpIn
T3 construct: also called huNav1.7-beta1-beta2-beta3; huNav1.7-β1-β2-β3

[4] = target: T1, huNav1.7α + β1; test: binding FACS, HEK
[5] = target: T2, huNav1.7α; test: binding FACS, HEK
[6] = target: T4, huNav157chim14 (human); test: binding FACS, HEK Flp-In
T4 construct: HEK Flp-In cells; also called huNav157 chimera 14

IC50 [1]: 110 nM
IC50 [2]: 67 nM
IC50 [3]: 0.1 nM
B1: F010300191 (bispecific antibody)
chain: EVQLVESGGGLVQPGGSLRLSCAASGSIFNINSMAWYRRAPGKQRELVASSTNGGSTNYADSVKGRFTISRDNAKRVYLQMNSLTPEDTAVYYCNALLQPSIYDISRTYWGQGTLVTVSSGGGGSGGGGSGGGGSGGGGSGGGGSGGGGSGGGGSGGGGSGGGGSGGGGSEVQLVESGGGLVQAGGSLRLSCAASGGTGRRYAMGWFRQAPGKEREIVAAIRWSAMTYYADDGKGRFTISRDNAKNTVYLQMNSLKPEDTAIYYCAYTWDYFKYDQVRAYRGWGQGTLVTVSSGAADYKDHDGDYKDHDIDYKDDDDKGAAHHHHHH
notes: also called F0103275B05-50GS-F0103240B04-FLAG3-HIS6

EC50 [4]: 13 nM
EC50 [5]: 13 nM
B2: F0103275B05-FLAG3 + HIS6 (VHH)
VHH: EVQLVESGGGLVQPGGSLRLSCAASGSIFNINSMAWYRRAPGKQRELVASSTNGGSTNYADSVKGRFTISRDNAKRVYLQMNSLTPEDTAVYYCNALLQPSIYDISRTYWGQGTLVTVSS
notes: also called F0103275B05 (parental)-FLAG-HIS6

MFI [6]: 27700 MFI
B3: F010300702 (bispecific antibody, V domains shown, not shown: small tags and cut ends)
VH: EVQLVESGGGLVQPGGSLRLSCAASGSIFNINSMAWYRRAPGKQRELVASSTNGGSTNYADSVKGRFTISRDNAKRVYLQMNSLTPEDTAVYYCRALLQPSIYDISRTYWGQGTLVTVSS
notes: also called F010300702 (n = 15); control bivalent ISVD
